These results are taken from paper PMC5750232, “RAD54 N-terminal domain is a DNA sensor that couples ATP hydrolysis with branch migration of Holliday junctions” (Nature Communications, 2018).

Numbering of substitutions follows the chain as printed.

For one series, the target named is T1, RAD54 1-142 T31E (human, UniProt Q92698 1-142, T31E).
T1 sequence: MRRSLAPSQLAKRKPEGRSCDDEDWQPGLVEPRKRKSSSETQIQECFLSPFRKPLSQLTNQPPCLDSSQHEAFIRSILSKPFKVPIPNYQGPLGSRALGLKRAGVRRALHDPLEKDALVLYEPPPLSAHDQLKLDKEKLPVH
The series is described as follows: EMSA; no significant effect of mutation; 5 mM Mg2+, 2 mM ATP; 25 mM Tris-acetate pH 7.5, 5 mM Mg acetate, 100 ug/ml BSA, 2 mM DTT, 2 mM ATP, 10% glycerol, 4 C, 45 min; 30 nM PX junction; 6% native PAGE in 0.25x TBE. As to conditions: protein: recombinant; tags: Sumo-His, cleaved; partial X junction with one ssDNA arm, 4 strands. (In EMSA bound probe runs differently from free probe, usually more slowly.)

A further series has as its target T2, RAD54 1-142 52AA53 (human, UniProt Q92698 1-142, R52A;K53A).
T2 sequence: T1 sequence with E31T, R52A, K53A
The series is described as follows: EMSA; similar to non-mutated 1-142; 5 mM Mg2+, 2 mM ATP; 25 mM Tris-acetate pH 7.5, 5 mM Mg acetate, 100 ug/ml BSA, 2 mM DTT, 2 mM ATP, 10% glycerol, 4 C, 45 min; 30 nM PX junction; 6% native PAGE in 0.25x TBE. The following applies: protein: recombinant; tags: Sumo-His, cleaved; partial X junction with one ssDNA arm, 4 strands.

B1: non-mobile PX junction (174/175/176/181) (structured_DNA)
DNA 1: GACGCTGCCGAATTCTACCAGTGCCTTGCTAGGACATCTTTGCCCACCTGCAGGTTCACCC
DNA 2: TGGGTGAACCTGCAGGTGGGCAAAGATGTCCTAGCAATGTAATCGTCAAGCTTTATGCCGTT
DNA 3: CAACGGCATAAAGCTTGACGATTACATTGCTAGGACATGCTGTCTAGAGGATCCGACTATCGA
DNA 4: TCGATAGTCGGATCCTCTAGACAGC
In the case of B1, the binding result with RAD54 1-142 T31E and with RAD54 1-142 52AA53 was “binds” throughout.
